Laboratory results published in paper PMC11246429 (2024).
Each block holds one molecule with its values, some of them ahead of it.

Assays:
[1] = target: AP180 segment 471–700 (rat); assay: NMR titration; unlabeled AP2α titrated into 15N labeled AP180 (50 μM AP180 471–700, 90 μM AP180IDR); 1H-15N HSQC and 15N R1ρ; residue-wise KD from R1ρ against AP2α concentration; NMR buffer 50 mM Na-phosphate pH 6, 150 mM NaCl, 2 mM DTT, 25 °C
[2] = target: AP180 399-598 (rat); assay: ITC; AP2β2 mutants titrated into 0.04 mM AP180 399-598 in the cell; 25 °C; 150 mM NaCl, 50 mM Na-phosphate, 0.2 mM TCEP, pH 7.5; 1:1 binding model
[3] = target: AP180 IDR (residues 281–898 of AP180) (rat); assay: NMR titration; unlabeled CHCTD (in 50 mM Na-phosphate pH 7.5, 150 mM NaCl, 2 mM DTT) titrated into 15N labeled AP180 in NMR buffer (pH 6); 1H-15N HSQC and 15N R1ρ; residue-wise KD from a linear fit of R1ρ against CHCTD concentration under the assumption of weak binding; 25 °C
[4] = target: AP180 segment 399–598 (rat); assay: NMR CPMG relaxation dispersion; 100 μM 15N AP180 399–598 with 10 μM unlabeled AP2β2; 600 and 850 MHz; 22 residues fitted together with a two-state exchange model (ChemEx); KD calculated from pB under the assumption of 1:1 stoichiometry
[5] = target: AP180 IDR (residues 281–898 of AP180) (rat); assay: ITC; 0.03 mM AP180 construct in the cell (0.04 mM AP180 399–598 for the AP2β2 mutants), 2 μl steps of 0.3 mM AP2β2; 25 °C; 150 mM NaCl, 50 mM Na-phosphate, 0.2 mM TCEP, pH 7.5; 1:1 binding model
[6] = target: AP180 segment 399–598 (rat); assay: as above
[7] = target: AP180 430–500 (extended interaction motif, EIM) (rat); assay: as above
[8] = target: T1, AP2 β2-appendage domain with linker (residues 617–951) (bovine, UniProt Q08DS7 617-951); assay: ITC
T1 chain: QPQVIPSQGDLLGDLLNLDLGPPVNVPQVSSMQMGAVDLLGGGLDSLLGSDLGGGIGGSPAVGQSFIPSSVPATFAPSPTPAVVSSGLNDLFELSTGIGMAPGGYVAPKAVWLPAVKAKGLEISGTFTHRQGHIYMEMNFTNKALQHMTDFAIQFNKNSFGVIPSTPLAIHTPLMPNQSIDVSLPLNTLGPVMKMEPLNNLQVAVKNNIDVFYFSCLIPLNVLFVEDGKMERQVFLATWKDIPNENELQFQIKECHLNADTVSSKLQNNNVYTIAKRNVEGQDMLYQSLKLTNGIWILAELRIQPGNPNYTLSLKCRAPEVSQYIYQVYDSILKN

Sequence of AP180 segment 471–700 (rat) (Q05140 whole entry): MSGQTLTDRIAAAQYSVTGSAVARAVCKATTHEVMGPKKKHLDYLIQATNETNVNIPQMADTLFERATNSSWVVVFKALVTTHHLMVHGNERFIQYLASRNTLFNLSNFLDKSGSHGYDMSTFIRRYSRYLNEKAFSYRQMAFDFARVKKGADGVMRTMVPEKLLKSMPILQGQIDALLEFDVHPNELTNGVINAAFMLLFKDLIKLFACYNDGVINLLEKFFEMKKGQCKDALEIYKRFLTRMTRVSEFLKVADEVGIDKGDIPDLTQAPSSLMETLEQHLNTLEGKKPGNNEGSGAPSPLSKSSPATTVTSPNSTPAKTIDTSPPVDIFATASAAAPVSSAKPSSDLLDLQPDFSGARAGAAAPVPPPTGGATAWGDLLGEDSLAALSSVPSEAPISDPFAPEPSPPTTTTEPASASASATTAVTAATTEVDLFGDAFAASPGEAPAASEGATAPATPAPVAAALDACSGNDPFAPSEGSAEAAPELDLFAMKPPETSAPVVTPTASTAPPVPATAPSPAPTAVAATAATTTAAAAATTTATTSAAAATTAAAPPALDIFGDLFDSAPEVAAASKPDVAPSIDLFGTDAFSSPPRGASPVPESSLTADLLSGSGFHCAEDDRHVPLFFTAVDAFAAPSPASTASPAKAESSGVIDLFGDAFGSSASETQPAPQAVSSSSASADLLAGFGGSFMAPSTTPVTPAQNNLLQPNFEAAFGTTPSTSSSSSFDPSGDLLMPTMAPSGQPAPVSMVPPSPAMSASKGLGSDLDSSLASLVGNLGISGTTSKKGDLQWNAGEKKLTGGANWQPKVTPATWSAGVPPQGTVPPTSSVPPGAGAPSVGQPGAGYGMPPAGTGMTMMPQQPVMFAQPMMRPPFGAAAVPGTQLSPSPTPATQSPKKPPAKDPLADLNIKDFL

- residue-wise KD (first residue of Fig. 3D) [1]: 144 µM
- residue-wise KD (second residue of Fig. 3D) [1]: 380 µM
- residue-wise KD (third residue of Fig. 3D) [1]: 414 µM
Molecule: AP2 α-appendage domain (residues 701–938) (from UniProt P17427 701-938) (domain or fragment)

- Kd [2]: 7.8 µM
Molecule: AP2β2 K842E (domain or fragment)

- Kd [2]: 4.9 µM
Molecule: AP2β2 Y815A (domain or fragment)

- Kd [2]: 7.3 µM
Molecule: AP2β2 Y888A (domain or fragment)

- residue-wise KD (first residue of Fig. 2E) [3]: 177 µM
- residue-wise KD (fourth residue of Fig. 2E) [3]: 700 µM
- residue-wise KD (second residue of Fig. 2E) [3]: 294 µM
- residue-wise KD (third residue of Fig. 2E) [3]: 549 µM
Molecule: clathrin heavy chain terminal domain (residues 1–363) (from UniProt P49951 1-363) (domain or fragment)

- Kd [4]: 10 µM
- exchange rate kex (kon [AP2β2] + koff) [4]: 662 s⁻¹
- percentage of bound population of AP180 (10% AP2β2) [4]: 8.9%
- Kd [5]: 6.97 µM
- Kd [6]: 5.1 µM
- Kd [7]: 2500 nM
B1: AP2 β2-appendage domain with linker (residues 617–951) (domain or fragment)
chain: QPQVIPSQGDLLGDLLNLDLGPPVNVPQVSSMQMGAVDLLGGGLDSLLGSDLGGGIGGSPAVGQSFIPSSVPATFAPSPTPAVVSSGLNDLFELSTGIGMAPGGYVAPKAVWLPAVKAKGLEISGTFTHRQGHIYMEMNFTNKALQHMTDFAIQFNKNSFGVIPSTPLAIHTPLMPNQSIDVSLPLNTLGPVMKMEPLNNLQVAVKNNIDVFYFSCLIPLNVLFVEDGKMERQVFLATWKDIPNENELQFQIKECHLNADTVSSKLQNNNVYTIAKRNVEGQDMLYQSLKLTNGIWILAELRIQPGNPNYTLSLKCRAPEVSQYIYQVYDSILKN

- Kd [8]: 4.2 µM
B2: AP180 IDR (residues 281–898 of AP180) (domain or fragment)
chain: GHMHLNTLEGKKPGNNEGSGAPSPLSKSSPATTVTSPNSTPAKTIDTSPPVDIFATASAAAPVSSAKPSSDLLDLQPDFSGAAAGAAAPVPPPTGGATAWGDLLGEDSLAALSSVPSEAPISDPFAPEPSPPTTTTEPASASASATTAVTAATTEVDLFGDAFAASPGEAPAASEGATAPATPAPVAAALDACSGNDPFAPSEGSAEAAPELDLFAMKPPETSAPVVTPTASTAPPVPATAPSPAPTAVAATAAATTTTTAAAATTTATTSAAAAATAAAPPALDIFGDLFDSAPEVAAASKPDVAPSIDLFGTDAFSSPPRGASPVPESSLTADLLSVDAFAAPSPASTASPAKAESSGVIDLFGDAFGSSASETQPAPQAVSSSSASADLLAGFGGSFMAPSTTPVTPAQNNLLQPNFEAAFGTTPSTSSSSSFDPSGDLLMPTMAPSGQPAPVSMVPPSPAMSASKGLGSDLDSSLASLVGNLGISGTTSKKGDLQWNAGEKKLTGGANWQPKVTPATWSAGVPPQGTVPPTSSVPPGAGAPSVGQPGAGYGMPPAGTGMTMMPQQPVMFAQPMMRPPFGAAAVPGTQLSPSPTPATQSPKKPPAKDPLADLNIKDFLLEHHHHHH
